No end group written: not given here.
T1: zebrafish PTH1R receptor, clone zPTH1R#29 (shorter 5' UT, 149 bp), transiently expressed in COS-7 cells (zebrafish (Danio rerio))
T1 construct: Full-length cDNA expressed on intact COS-7 cells; also called zPPR1#29; zPTH1R(FL)/pcDNAI/Amp
T1 chain: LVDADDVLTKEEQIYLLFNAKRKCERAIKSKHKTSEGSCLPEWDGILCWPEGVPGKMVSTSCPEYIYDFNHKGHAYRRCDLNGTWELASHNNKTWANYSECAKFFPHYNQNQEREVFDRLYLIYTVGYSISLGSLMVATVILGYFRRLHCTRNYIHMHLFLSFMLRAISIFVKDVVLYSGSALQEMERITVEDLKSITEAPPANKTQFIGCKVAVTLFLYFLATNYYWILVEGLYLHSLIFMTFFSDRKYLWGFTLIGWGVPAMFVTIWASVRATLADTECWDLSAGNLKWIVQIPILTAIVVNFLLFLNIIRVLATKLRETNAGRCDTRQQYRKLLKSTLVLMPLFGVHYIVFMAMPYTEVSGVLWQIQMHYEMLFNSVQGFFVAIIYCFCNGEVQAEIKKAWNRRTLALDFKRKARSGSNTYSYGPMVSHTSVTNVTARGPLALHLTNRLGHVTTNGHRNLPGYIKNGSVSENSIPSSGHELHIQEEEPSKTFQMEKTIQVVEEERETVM

T2: zebrafish PTH1R receptor, clone zPTH1R#25 (longer 5' UT, 391 bp), transiently expressed in COS-7 cells (zebrafish (Danio rerio))
T2 construct: only the 5' UT differs; also called zPPR1#25
T2 chain: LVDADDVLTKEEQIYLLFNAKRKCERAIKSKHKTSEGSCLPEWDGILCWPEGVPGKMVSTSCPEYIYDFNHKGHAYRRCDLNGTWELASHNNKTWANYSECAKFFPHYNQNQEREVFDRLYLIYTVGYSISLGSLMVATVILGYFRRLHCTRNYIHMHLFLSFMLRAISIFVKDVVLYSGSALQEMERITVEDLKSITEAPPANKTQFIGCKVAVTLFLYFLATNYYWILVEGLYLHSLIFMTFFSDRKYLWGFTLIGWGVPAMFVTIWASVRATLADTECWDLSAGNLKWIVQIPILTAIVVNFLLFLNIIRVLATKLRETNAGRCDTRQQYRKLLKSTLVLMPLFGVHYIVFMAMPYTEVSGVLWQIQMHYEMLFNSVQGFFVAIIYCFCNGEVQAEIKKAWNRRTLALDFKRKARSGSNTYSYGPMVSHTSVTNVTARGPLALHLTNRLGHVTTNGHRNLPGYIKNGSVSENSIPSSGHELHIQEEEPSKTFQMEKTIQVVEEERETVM

T3: zebrafish PTH3R receptor, transiently expressed in COS-7 cells (zebrafish (Danio rerio))
T3 construct: Full-length cDNA expressed on intact COS-7 cells; also called zPTH3R; zPPR3
T3 chain: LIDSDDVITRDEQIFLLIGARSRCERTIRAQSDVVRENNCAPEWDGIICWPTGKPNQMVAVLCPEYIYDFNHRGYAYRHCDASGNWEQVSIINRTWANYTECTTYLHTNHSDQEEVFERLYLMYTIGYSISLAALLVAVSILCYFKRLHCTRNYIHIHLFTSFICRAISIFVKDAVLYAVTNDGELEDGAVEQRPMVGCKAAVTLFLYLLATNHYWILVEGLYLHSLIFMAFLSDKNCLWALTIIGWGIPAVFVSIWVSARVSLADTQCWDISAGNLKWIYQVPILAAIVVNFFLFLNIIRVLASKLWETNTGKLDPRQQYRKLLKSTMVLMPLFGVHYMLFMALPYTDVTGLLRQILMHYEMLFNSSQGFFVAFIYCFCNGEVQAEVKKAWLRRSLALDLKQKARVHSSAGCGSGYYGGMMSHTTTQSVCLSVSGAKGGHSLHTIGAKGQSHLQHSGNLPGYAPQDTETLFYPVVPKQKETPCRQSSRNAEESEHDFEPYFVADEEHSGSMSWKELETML

B1: 125I-labeled [Nle8,21,Tyr34]rPTH-(1-34)amide (peptide)
peptide: AVSEIQLXHNLGKHLASVERXQWLRKKLQDVHNY
modifications: Nle at 8 and 21; C-terminal amide; 125I-labeled
notes: Synthetic analog of rat PTH(1-34), used as radioligand
B2: [Tyr34]hPTH(1-34)amide (peptide)
peptide: SVSEIQLMHNLGKHLNSMERVEWLRKKLQDVHNY-NH2
notes: Synthetic analog of human PTH(1-34) with Tyr at 34

Tests used:
[1] = target: T1, zebrafish PTH1R receptor, clone …; test: radioligand binding on COS-7 cells expressing the receptor
Method: (§1) Plasmid DNAs encoding the two full length zPTH1Rs (#25 and #29) and the zPTH3R were transiently expressed in COS-7 cells. COS-7 African green monkey kidney cells (approximately 200,000 cells/well in a 24-well plate) were cultured and transfected with plasmid DNA (200 ng/well) as described (Rubin et al., (1998)). After transfection, cells were cultured for 72 hrs at 37° with daily exchanges of medium, followed by an additional 24 hrs at 33° (Gardella et al., (1997)) until they were functionally evaluated after 96 hrs.
(§2) Peptides were synthesized by the MGH polymer core facility as described (Gardella et al., (1996)). Specific binding was calculated by subtracting radioligand binding in the presence of excess unlabeled peptide from the total binding. All points represent mean±S.E.M. of two to three replicates from two or more independent experiments.

[2] = target: T2, zebrafish PTH1R receptor, clone …; test: as above
Method: as §1, §2

[3] = target: T3, zebrafish PTH3R receptor, transiently …; test: as above
Method: as §1, §2

[4] = target: T1, zebrafish PTH1R receptor, clone …; test: cell-based or functional assay
[5] = target: T1, zebrafish PTH1R receptor, clone …; test: cell-based or functional assay
[6] = target: T2, zebrafish PTH1R receptor, clone …; test: cell-based or functional assay
[7] = target: T3, zebrafish PTH3R receptor, transiently …; test: cell-based or functional assay
[8] = target: T1, zebrafish PTH1R receptor, clone …; test: competitive radioligand binding on intact COS-7 cells expressing the receptor, room temperature; unlabeled hPTH, radioligand not clearly stated (125I-rPTH or 125I-PTHrP)
Method: as §2
(§3) Table 3. Binding and cAMP Signaling Properties of PTH and PTHrP Analogs on the zPTH1R and the zPTH3R Competitive binding and cAMP stimulation assays were performed at room temperature with intact COS-7 cells that expressed either the zPTH1R or the zPTH3R, as described in Materials and Methods. […] Values are the mean±SEM of at least three independent transfections. ND, not determined.

[9] = target: T2, zebrafish PTH1R receptor, clone …; test: as above
Method: as §2, §3

[10] = target: T3, zebrafish PTH3R receptor, transiently …; test: as above
Method: as §2, §3

| Binder | binding result [1] | binding result [2] | binding result [3] | IP accumulation (total inositol phosphates, 10^-6 M ligand) [4] [fold] | cAMP EC50 [5] [nM] | cAMP Maximum [5] [pmol/well] | cAMP EC50 [6] [nM] | cAMP Maximum [6] [pmol/well] | cAMP EC50 [7] [nM] | cAMP Maximum [7] [pmol/well] | IC50 [8] [nM] | IC50 [9] [nM] | IC50 [10] [nM] |
| --- | --- | --- | --- | --- | --- | --- | --- | --- | --- | --- | --- | --- | --- |
| B1 | binds | binds | binds |  |  |  |  |  |  |  |  |  |  |
| B2 |  |  |  | 2 | 0.8 | 106 | ~3 | 90.4 | 5.98 | 227 | ~3 | ~3 | ~100 |

From patent US6541220 (GENERAL HOSPITAL, dated 2003)
